T1: nuclear HMGB1 in fixed HUVEC cells (UniProt P09429 1-215, limits assumed)
T1 construct: whole, on cells; immunostaining
T1 sequence (looked up): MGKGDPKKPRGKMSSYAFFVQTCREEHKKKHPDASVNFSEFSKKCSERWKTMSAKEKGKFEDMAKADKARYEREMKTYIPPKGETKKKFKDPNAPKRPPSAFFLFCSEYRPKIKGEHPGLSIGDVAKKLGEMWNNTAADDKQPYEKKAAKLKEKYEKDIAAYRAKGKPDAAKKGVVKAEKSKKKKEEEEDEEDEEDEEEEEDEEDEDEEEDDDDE

T2: actively secreted HMGB1 of LPS treated HUVEC cells (UniProt P09429 1-215, limits assumed)
T2 construct: whole, on cells; immunostaining
T2 sequence (looked up): T1 sequence (looked up)

T3: released HMG1 from conditioned medium of necrotic 293H cells (human, UniProt P09429 1-215)
T3 construct: also called necrotic HMG1
T3 sequence (looked up): T1 sequence (looked up)

T4: HMGB1 in joint lysate of adjuvant induced arthritis (AIA) rats (rat, UniProt P63159 2-215)
T4 construct: also called HMGB1 from arthritis joints; joint lysate HMGB1
T4 sequence (looked up): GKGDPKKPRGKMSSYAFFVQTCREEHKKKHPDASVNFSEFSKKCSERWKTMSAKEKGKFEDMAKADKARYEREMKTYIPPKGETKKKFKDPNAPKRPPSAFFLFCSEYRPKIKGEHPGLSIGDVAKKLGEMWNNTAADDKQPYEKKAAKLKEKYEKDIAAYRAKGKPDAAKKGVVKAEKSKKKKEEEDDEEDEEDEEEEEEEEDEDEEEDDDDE

B1: human anti-HMG1 antibody G4 (antibody, IgG1, V domains shown)
VH: EVQLLESGGGLVQPGGSLRLSCAASGFTFSWYDMTWVRQAPGKGLEWVSSISPSGGYTKYADSVKGRFTISRDNSKNTLYLQMNSLRAEDTAVYYCTTEFYDYLDVWGKGTTVTVSS
VL: DIQMTQSPGTLSLSPGEGATLSCRASQSVSSTYLAWYQQKPGQAPRLLIYEASKRATGTPARFSGSGSGTDFTLSISSLEPEDFAVYYCQHRHNWPPQWTFGQGTKVEVK
notes: full length IgG1 made from a human Fab phage clone; also called ATCC PTA-6258
B2: human anti-HMG1 antibody S16 (antibody, IgG1, V domains shown)
VH: EVQLLESGGGLVQPGGSLRLSCAASGFTFSWYSMLWVRQAPGKGLEWVSYISPSGGFTNYADSVKGRFTISRDNSKNTLYLQMNSLRAEDTAVYYCARWDYNSGWYYDHWGQGTLVTVSS
VL: DIQMTQSPDTLSLSPGERATLSCRASQSVNSRNLAWYQQKPGQAPRLLIYGASTRATGIPDRFSGSVSGTEFTLTISSLQPDDFATYYCQQYNSYFTFGQGTKLEIK
notes: full length IgG1 made from a human Fab phage clone; also called ATCC PTA-6259

How the values were obtained:
[1] = target: T1, nuclear HMGB1 in fixed HUVEC cells; assay: immunofluorescence on fixed HUVEC, anti-human IgG-FITC; paragraph 81 gives the lower panels as G4
Experimental: (§1) Immunofluorescence: Intracytoplasmic (ic) HMGB1 was quantitated by direct immunofluorescence. HUVEC were harvested by trypsin-EDTA treatment and seeded on a glass coverslip. Once the cells are settled, they were stimulated with 0.2 μg/ml of LPS (Sigma) for 4 hours. The cells were fixed in 2% paraformaldehyde for 15 min and then permeabilized in 0.2% Triton X-100 for 2 min. Fixed and permeabilized cells were incubated with anti-HMGB1 antibodies at 1 μg/ml for 1 hour at room temperature. Cells were then washed to remove excess or nonspecifically bound primary antibody followed by incubation with anti human IgG conjugated with fluorescence (Pierce). The sections were mounted with fluoromount (Southern Associates, Birmingham, Ala.), and the images were processed with a Nikon microscope (Japan) and a SPOT imaging system (Diagnostic Instrument).

[2] = target: T2, actively secreted HMGB1 of LPS treated …; assay: immunofluorescence on fixed LPS treated HUVEC, anti-human IgG-FITC; paragraph 81 gives the lower panels as G4
Experimental: as §1

[3] = target: T3, released HMG1 from conditioned medium …; assay: sandwich ELISA: antibody titrated and captured on anti-human IgG Fc, released HMG1 in solution, mouse anti-HMGB1 detection, OD 450
Experimental: Sandwich ELISA (soluble HMG1): Immunoplates (EIA/RIA plate, High binding, Costar) were coated with anti human IgG Fc at 10 μg/ml in PBS (pH 7.2) and incubated at 4° C. overnight. The coating reagent was removed and the plates were rinsed briefly with PBS. The plates were then blocked with 4% milk for 1 hour at 37° C. and rinsed with PBS. The anti-HMG1 antibodies were diluted in 4% milk. For serial dilutions, the antibodies were used at a starting concentration of 20 μg/ml. The diluted anti-HMG1 antibodies were then added into plate and incubated for 1 hr at 37° C. The plate was then washed 10 times with PBST (PBS/0.1% tween 20) and incubate with antigen (HMGB1, 2 μg/ml; or 0.7 μg/ml for native HMGB1) in 4% milk and incubated at 37° C. for 1 h. The plate was then wash 10 times and incubated with mouse anti-HMGB1, 1 μg/ml in 4% milk at 37° C. for 1 h. The plate was washed 10 times and incubated with anti-mouse IgG-HRP at 1:1000 at 37° C. for 1 h. The plate was then washed and developed. HRP activity was detected with Sureblue HRP substrate (KPL). Plates were read at 450 nm using a Kinetic Microplate Reader (Molecular Devices).

[4] = target: T4, HMGB1 in joint lysate of adjuvant …; assay: immunoprecipitation from AIA rat joint lysate, Western blot; paragraph 81 gives lane 2 as S16
Experimental: Immunoprecipitation and Western Blot: Anti-HMGB1 mAbs (G4 and S6) and isotype control were first biotinylated using EZ-Link Sulfo-NHS-LC-Biotin as instructed by the manufacturer (Pierce). After labeling, the mAb was tested for binding to HMGB1 by ELISA with unlabeled mAbs as controls. The biological samples, joint lysate (30 μl), was mixed with […] biotinylated G4, S6 or isotype control overnight at 4° C. in 300 μl IP buffer [containing 1×PBS, pH 7.2 (Invitrogen), 0.1% Tween 20, 0.5 M sodium chloride, 10 mM sodium butyrate, and a 1:100 dilution of Phosphatase Inhibitor Cocktail I (Sigma)]. For sepsis sera, Tween 20, sodium chloride, sodium butyrate, and Phosphatase Inhibitor Cocktail I were added to 500 μl sera with the same final concentration as IP buffer. Streptavidin Sepharose beads (GE Healthcare) were blocked in 4% BSA-PBS overnight at 4° C., then washed three times with PBS and resuspended in 1×PBS resulting in 50% slurry. The bead slurry (60 μl) was then added to the overnight mAb/sample mixture and mixed for 20 minutes at room temperature. The beads were washed once with PBS, five times with IP Buffer and then washed twice with PBS by spinning at 1000 g for two min. […] The bands were detected by LumiGlo substrate solution (KPL) after washing.

| Binder | binding result [1] | binding result [2] | binding result [3] | binding result [4] |
| --- | --- | --- | --- | --- |
| B1 | binds | binds | binds | – |
| B2 | – | – | – | binds |

— patent US20110287023A1 (AstraZeneca / MedImmune, published 2011)
